Data on 6 molecules can be found in patent US8329195B2, “Detoxified pneumococcal neuraminidase and uses thereof” (priority 2007, dated 2012).

Read-outs that look alike come from different tables or passages of the source.

Series [1] is described as follows: MUAN assay of neuraminidase activity. It is filed as biochemical. The conditions noted are these: MUAN assay at 37° C. at pH 7.0. The text has this:
The total abolishment of activity is consistent with the proposed activities as based on the alignment with structures previously known.

Series [2] deals with TIGR4 Streptococcus pneumoniae. The series is classed as in vivo. To be noted: for protection against nasal carriage / colonization (nasal wash and nasal tissue) / protection from pneumococci reaching (invasion into) the lungs, olfactory bulb, or brain: CBA/N mice, 50 μg intranasal with CTB, TIGR4 challenge, day 7.
The nature of series [3]: Sialidase (neuraminidase) activity of recombinant NanA fragments. It is filed as biochemical. The procedure: The decreased activity of a detoxified neuraminidase or a neuraminidase fragment as compared to non-detoxified neuraminidase can be measured by the assay of Lock, et al. (Microb. Pathog. 4; 33-43, 1988). Using the Lock assay, NanA activity in lysates, serum, or blood can be measured using 2′-(4-methyl-umbelliferyl)-α-D-N-acetylyneuraminic acid as the substrate in a enzyme assay (Lock et al. 1988). Ten microliters of substrate are combined with 10 μL of serum and incubated for 5 minutes at 37° C. The reaction is stopped using 0.5 M sodium carbonate. Neuraminidase activity is measured in terms of the amount of 4-methylumbelliferone (MU) released per minute. MU has an excitation wavelength of 366 nm and an emission wavelength of 445 nm. […] Thus, the detoxified neuraminidase or fragment thereof can have no measurable enzymatic activity as compared to the enzymatic activity of a non-detoxified neuraminidase. Further, the detoxified neuraminidase can have protective antibody eliciting activity similar to the non-detoxified neuraminidase.
Such an assay is described in Berry et al., J. Bacterial 1784854-4860 (1996).

For series [4] the following is noted: NanB at its optimal pH; cited from earlier work.

B1: NanA571: recombinant 571-amino-acid central fragment of TIGR4 NanA, corresponding to residues 230-800 of R6 NanA; His-tagged form SEQ ID NO:18 (protein, listed as Streptococcus pneumoniae)
chain: PTAELPKGRVRLYVNGVLSRTSLRSGNFIKDMPDVTHVQIGATKRANNTVWGSNLQIRNLTVYNRALTPEEVQKRSQLFKRSDLEKKLPEGAALTEKTDIFESGRNGNPNKDGIKSYRIPALLKTDKGTLIAGADERRLHSSDWGDIGMVIRRSEDNGKTWGDRVTITNLRDNPKASDPSIGSPVNIDMVLVQDPETKRIFSIYDMFPEGKGIFGMSSQKEEAYKKIDGKTYQILYREGEKGAYTIRENGTVYTPDGKATDYRVVVDPVKPAYSDKGDLYKGDQLLGNIYFTTNKTSPFRIAKDSYLWMSYSDDDGKTWSAPQDITPMVKADWMKFLGVGPGTGIVLRNGPHKGRILIPVYTTNNVSHLDGSQSSRVIYSDDHGKTWHAGEAVNDNRQVDGQKIHSSTMNNRRAQNTESTVVQLNNGDVKLFMRGLTGDLQVATSKDGGVTWEKDIKRYPQVKDVYVQMSAIHTMHEGKEYIILSNAGGPKRENGMVHLARVEENGELTWLKHNPIQKGEFAYNSLQELGNGEYGILYEHTEKGQNAYTLSFRKFNWEFLSKNLISPTEAN
B1: the neuraminidase activity in series [1] stood at 3.9 µmol/min/mg. Also, the “protection against nasal carriage / colonization (nasal wash and nasal tissue)” value in series [2] was “solid protection”; in series [2] (listed as rNanA571), “elicited protection”. Further, in series [2] (figure legend FIG. 11), the “in vivo protection to S. pneumoniae challenge” value is “elicited in vivo protection”. Also, the “sialidase activity of the recombinant protein” value in series [3] is “active”; in series [3] (listed as rNanA571), “enzymatically active”.

B2: NanA571_Y752F: NanA571 with tyrosine Y752 converted to phenylalanine (protein)
chain: PTAELPKGRVRLYVNGVLSRTSLRSGNFIKDMPDVTHVQIGATKRANNTVWGSNLQIRNLTVYNRALTPEEVQKRSQLFKRSDLEKKLPEGAALTEKTDIFESGRNGNPNKDGIKSYRIPALLKTDKGTLIAGADERRLHSSDWGDIGMVIRRSEDNGKTWGDRVTITNLRDNPKASDPSIGSPVNIDMVLVQDPETKRIFSIYDMFPEGKGIFGMSSQKEEAYKKIDGKTYQILYREGEKGAYTIRENGTVYTPDGKATDYRVVVDPVKPAYSDKGDLYKGDQLLGNIYFTTNKTSPFRIAKDSYLWMSYSDDDGKTWSAPQDITPMVKADWMKFLGVGPGTGIVLRNGPHKGRILIPVYTTNNVSHLDGSQSSRVIYSDDHGKTWHAGEAVNDNRQVDGQKIHSSTMNNRRAQNTESTVVQLNNGDVKLFMRGLTGDLQVATSKDGGVTWEKDIKRYPQVKDVYVQMSAIHTMHEGKEYIILSNAGGPKRENGMVHLARVEENGELTWLKHNPIQKGEFAFNSLQELGNGEYGILYEHTEKGQNAYTLSFRKFNWEFLSKNLISPTEAN
With B2, the neuraminidase activity result in series [1] was “Neither mutation exhibited any detectable neuraminidase activity”.

B3: NanA571_E647T: NanA571 with glutamate E647 converted to threonine (protein)
chain: PTAELPKGRVRLYVNGVLSRTSLRSGNFIKDMPDVTHVQIGATKRANNTVWGSNLQIRNLTVYNRALTPEEVQKRSQLFKRSDLEKKLPEGAALTEKTDIFESGRNGNPNKDGIKSYRIPALLKTDKGTLIAGADERRLHSSDWGDIGMVIRRSEDNGKTWGDRVTITNLRDNPKASDPSIGSPVNIDMVLVQDPETKRIFSIYDMFPEGKGIFGMSSQKEEAYKKIDGKTYQILYREGEKGAYTIRENGTVYTPDGKATDYRVVVDPVKPAYSDKGDLYKGDQLLGNIYFTTNKTSPFRIAKDSYLWMSYSDDDGKTWSAPQDITPMVKADWMKFLGVGPGTGIVLRNGPHKGRILIPVYTTNNVSHLDGSQSSRVIYSDDHGKTWHAGEAVNDNRQVDGQKIHSSTMNNRRAQNTTSTVVQLNNGDVKLFMRGLTGDLQVATSKDGGVTWEKDIKRYPQVKDVYVQMSAIHTMHEGKEYIILSNAGGPKRENGMVHLARVEENGELTWLKHNPIQKGEFAYNSLQELGNGEYGILYEHTEKGQNAYTLSFRKFNWEFLSKNLISPTEAN
In the case of B3, the neuraminidase activity entry in series [1] was “Neither mutation exhibited any detectable neuraminidase activity”.

B4: NanA186: recombinant near-N-terminal NanA fragment from TIGR4, residues 157-342; His-tagged form SEQ ID NO:22 (protein)
chain: EFKPDAKAPAFYNLFSVSSATKKDEYFTMAVYNNTATLEGRGSDGKQFYNNYNDAPLKVKPGQWNSVTFTVEKPTAELPKGRVRLYVNGVLSRTSLRSGNFIKDMPDVTHVQIGATKRANNTVWGSNLQIRNLTVYNRALTPEEVQKRSQLFKRSDLEKKLPEGAALTEKTDIFESGRNGNPNKDG
Turning to B4, in series [2], the “protection against nasal carriage / colonization (nasal wash and nasal tissue)” value is given as “no observed statistically significant protection”; the “protection from pneumococci reaching (invasion into) the lungs, olfactory bulb, or brain” value is on record as “did not elicit protection”. Besides, the “sialidase activity of the recombinant protein” value in series [3] is “no sialidase activity”.

B5: NanA215: recombinant NanA fragment from TIGR4, residues 347-561, covers 2 of 4 Asp boxes; His-tagged form SEQ ID NO:20 (protein)
chain: RIPALLKTDKGTLIAGADERRLHSSDWGDIGMVIRRSEDNGKTWGDRVTITNLRDNPKASDPSIGSPVNIDMVLVQDPETKRIFSIYDMFPEGKGIFGMSSQKEEAYKKIDGKTYQILYREGEKGAYTIRENGTVYTPDGKATDYRVVVDPVKPAYSDKGDLYKGDQLLGNIYFTTNKTSPFRIAKDSYLWMSYSDDDGKTWSAPQDITPMVKAD
Turning to B5, in series [2], the “protection against nasal carriage / colonization (nasal wash and nasal tissue)” value is on record as “no observed statistically significant protection”; the “protection from pneumococci reaching (invasion into) the lungs, olfactory bulb, or brain” value is on record as “did not elicit protection”. Moreover, the “sialidase activity of the recombinant protein” value in series [3] is recorded as “no sialidase activity”.

B6: NanB: another S. pneumoniae neuraminidase, 43% homology with NanA (protein, UniProt Q54727 30-697, looked up)
Sialidase B: NELNYGQLSISPIFQGGSYQLNNKSIDISSLLLDKLSGESQTVVMKFKADKPNSLQALFGLSNSKAGFKNNYFSIFMRDSGEIGVEIRDAQKGINYLFSRPASLWGKHKGQAVENTLVFVSDSKDKTYTMYVNGIEVFSETVDTFLPISNINGIDKATLGAVNREGKEHYLAKGSIDEISLFNKAISDQEVSTIPLSNPFQLIFQSGDSTQANYFRIPTLYTLSSGRVLSSIDARYGGTHDSKSKINIATSYSDDNGKTWSEPIFAMKFNDYEEQLVYWPRDNKLKNSQISGSASFIDSSIVEDKKSGKTILLADVMPAGIGNNNANKADSGFKEINGHYYLKLKKNGDNDFRYTVRENGVVYNETTNKPTNYTINDKYEVLEGGKSLTVEQYSVDFDSGSLRERHNGKQVPMNVFYKDSLFKVTPTNYIAMTTSQNRGESWEQFKLLPPFLGEKHNGTYLCPGQGLALKSSNRLIFATYTSGELTYLISDDSGQTWKKSSASIPFKNATAEAQMVELRDGVIRTFFRTTTGKIAYMTSRDSGETWSKVSYIDGIQQTSYGTQVSAIKYSQLIDGKEAVILSTPNSRSGRKGGQLVVGLVNKEDDSIDWKYHYDIDLPSYGYAYSAITELPNHHIGVLFEKYDSWSRNELHLSNVVQYIDLEINDLTK
Regarding B6, the “sialidase activity relative to NanA at its pH optimum” value in series [4] is “about 1/100”.
